From patent US20050164323A1, “Methods of treating asthma” (Wyeth, priority 2003, published 2005)

How the values were obtained:
[1] = substrate: Nc1ncnc2c1ncn2[C@@H]1O[C@H](COP(=O)(O)OP(=O)(O)OP(=O)(O)O)[C@@H](O)[C@H]1O; assay: purified protein, by the assay type; conditions: pH 7.5, 25.0 °C
[2] = substrate: CC(C)C[C@H](NC(=O)[C@H](CO)NC(=O)CNC(=O)[C@H](CCCCN)NC(=O)[C@H](CCCNC(=N)N)NC(=O)[C@H](C)NC(=O)[C@@H](N)Cc1ccccc1)C(=O)N[C@@H](CCCNC(=N)N)C(=O)N[C@@H](CCC(N)=O)C(=O)O; assay: coupled PK/LDH assay: steady-state kinetics, product and dead-end inhibition of PKC-θ KD; type: biochemical, human; conditions: other: varied peptide substrate, saturating ATP, pH 7.5

B1: PKC-θ KD (Homo sapiens) (protein)
chain: MGPELNKERPSLQIKLKIEDFILHKMLGKGSFGKVFLAEFKKTNQFFAIKALKKDVVLMDDDVECTMVEKRVLSLAWEHPFLTHMFCTFQTKENLFFVMEYLNGGDLMYHIQSCHKFDLSRATFYAAEIILGLQFLHSKGIVYRDLKLDNILLDKDGHIKIADFGMCKENMLGDAKTNTFCGTPDYIAPEILLGQKYNHSVDWWSFGVLLYEMLIGQSPFHGQDEEELFHSIRMDNPFYPRWLEKEAKDLLVKLFVREPEKRLGVRGDIRQHPLFREINWEELERKEIDPPFRPKVKSPFDCSNFDKEFLNEKPRLSFADRALINSMDQNMFRNFSFMNPGMERLISHHHHHH
notes: PKC-θ KD (amino acid residues 362 to 706) was cloned into a pET16b expression vector; hexa-histidine (C); Met-Gly (non-native N-terminal residues) (N); made in house; host or cells: E. coli BL21-DE3 (pET16b)
- Km ([1]; other: 0 mM NaCl): 25 µM
- Km ([1]; other: initial velocity with peptide 1, 625 mM NaCl): 321 ± 19 µM
- Km ([1]; other: initial velocity, varied ATP vs peptide 3, 100 mM NaCl): 118 ± 17 µM
- kcat/Km [2]: 2.7e+06 M⁻¹ s⁻¹
